Data taken from publication PMC6303191 (Immunity, 2018).
Numbering of substitutions follows the chain as printed. Numbers in names are those of the source. Where “and” joins values, the source holds several entries; their conditions need not be identical. Identical values can stand only once.

B1: 12A12 V.Rev (antibody, V domains shown)
VH: not shown
VL: DIQMTQSPSSLSASVGDRVTITCQASQDISNYLNWYQQKPGKAPKLLIYDASNLETGVPSRFSGSGSGTDFTFTISSLQPEDIATYYCAVLEFFGPGTKVEIK
B2: VRC01 V.Rev (antibody, V domains shown)
VH: not shown
VL: EIVLTQSPGTLSLSPGERATLSCRASQSVSSSYLAWYQQKPGQAPRLLIYGASSRATGIPDRFSGSGSGTDFTLTISRLEPEDFAVYYCQQYEFFGQGTKVQVD
B3: VRC18b V.Rev (antibody, V domains shown)
VH: not shown
VL: B2 VL with Q91I, Y92L, Q97R, K100R, Q102E, V103M, D104N
B4: VRC01 UCA (antibody, V domains shown)
VH: not shown
VL: B2 VL with V101L, Q102E, V103I, D104K
notes: also called VRC01 lineage unmutated common ancestor; VRC01 UCA IgG
B5: VRC03 V.Rev (antibody, V domains shown)
VH: not shown
VL: B2 VL with Y92F, Q97L, T99S, K100E, V101L, Q102E, D104H
B6: VRC20 V.Rev (antibody, V domains shown)
VH: not shown
VL: QSALTQPASVSGSPGQSITISCTGTSSDVGGYNYVSWYQQHPGKAPKLMIYEVSNRPSGVSNRFSGSKSGNTASLTISGLQAEDEADYYCNAFEFFGGGTKLTVL
B7: VRC01 VJ.Rev (antibody, V domains shown)
VH: not shown
VL: EIVLTQSPATLSLSPGERATLSCRASQSVSSYLAWYQQKPGQAPRLLIYDASNRATGIPARFSGSGSGTDFTLTISSLEPEDFAVYYCQQYEFFGQGTKLEIK
B8: VRC23 V.Rev (antibody, V domains shown)
VH: not shown
VL: B7 VL with L4M, L13V, Y32N, D50G, N53T, D70E, E79Q, P80S, F93T, L100V
B9: VRC01 L34M (antibody, V domains shown)
VH: QVQLVQSGGQMKKPGESMRISCRASGYEFIDCTMNWIRLAPGKRPEWMGWLKPRGGAVNYARPLQGRVTMTRDVYSDTAFLELRSLTVDDTAVYFCTRGKNCDYNWDFEHWGRGTPVIVSS
VL: EIVLTQSPGTLSLSPGETAIISCRTSQYGSLAWYQQRPGQAPRLVIYSGSTRAAGIPDRFSGSRWGPDYNLTISNLESGDFGVYYCQQYEFFGQGTKVQVD
B10: DH651.1 with 33TL34 reverted to the germline-encoded 33YM34 (antibody, V domains shown)
VH: B9 VH with A24T, D31E, T33Y, K43R, P63S, L64F, V88P, N101D, D103N, I118T
VL: B9 VL with G9H, T10P, L11A, S12L, F81L
B11: DH651.4 with 33TL34 reverted to the germline-encoded 33YM34 (antibody, V domains shown)
VH: B9 VH with T33Y, K43R, N59S, N101T, E109A, R113Q, I118T
VL: B9 VL with D68E
B12: VRC02 with 33TL34 reverted to the germline-encoded 33YM34 (antibody, V domains shown)
VH: B9 VH with R23Q, T33Y, I37V, K43R, V88A, F95Y, I118T
VL: B9 VL with S74R, V83L
B13: VRC01 T33Y (antibody, V domains shown)
VH: B9 VH with T33Y, M34L
VL: B9 VL
B14: DH651.2 with 33TL34 reverted to the germline-encoded 33YM34 (antibody, V domains shown)
VH: B9 VH with G9A, T33Y, K43R, N101T, E109A, R113Q, I118T
VL: B9 VL with D68E
B15: VRC01 with 33TL34 reverted to the germline-encoded 33YM34 (antibody, V domains shown)
VH: B9 VH with T33Y
VL: B9 VL

Assays:
[1] = molecular target: T1, eOD-GT8 (monomer), synthetic construct eOD-GT8-Avi-3C-His (synthetic construct (engineered HIV-1 …))
eOD-GT8 (24-mer) = eOD-GT8 (24-mer) (synthetic construct (engineered HIV-1 …)); assay: BLI; conditions: both partners purified
eOD-GT8 (heptamer) = eOD-GT8 (heptamer) (synthetic construct (engineered HIV-1 …)); assay: BLI; conditions: both partners purified
[2] = molecular target: T1, eOD-GT8 (monomer), synthetic construct …; assay: SPR; conditions: both partners purified
[3] = molecular target: T2, eOD-GT6, synthetic construct eOD-GT6-Avi-3C-His (synthetic construct (engineered HIV-1 …)); assay: SPR; conditions: both partners purified
T2 construct: source: produced in house (Duke Human Vaccine Institute and VRC/NIAID)

Centromere protein B = molecular target: T3, Centromere protein B (Homo sapiens (product PRO-390 from …, UniProt P07199)); assay: ELISA; conditions: both partners purified
T3 construct: also called centromere B

Jo-1 antigen = Jo-1 antigen (Bos taurus (assumed), UniProt Q2KI84); assay: ELISA; conditions: both partners purified
Scl-70 antigen = Scl-70 antigen (Bos taurus (assumed), UniProt A0AAA9TV68); assay: ELISA; conditions: both partners purified
SSB (La) antigen = SSB (La) antigen (Bos taurus (assumed), UniProt P10881); assay: ELISA; conditions: both partners purified
[4] = molecular target: Ubiquitin Protein Ligase E3A (UBE3A) (Homo sapiens, assumed, UniProt Q05086); assay: ELISA; conditions: both partners purified
Sequence of Ubiquitin Protein Ligase E3A (UBE3A) (Q05086 whole entry): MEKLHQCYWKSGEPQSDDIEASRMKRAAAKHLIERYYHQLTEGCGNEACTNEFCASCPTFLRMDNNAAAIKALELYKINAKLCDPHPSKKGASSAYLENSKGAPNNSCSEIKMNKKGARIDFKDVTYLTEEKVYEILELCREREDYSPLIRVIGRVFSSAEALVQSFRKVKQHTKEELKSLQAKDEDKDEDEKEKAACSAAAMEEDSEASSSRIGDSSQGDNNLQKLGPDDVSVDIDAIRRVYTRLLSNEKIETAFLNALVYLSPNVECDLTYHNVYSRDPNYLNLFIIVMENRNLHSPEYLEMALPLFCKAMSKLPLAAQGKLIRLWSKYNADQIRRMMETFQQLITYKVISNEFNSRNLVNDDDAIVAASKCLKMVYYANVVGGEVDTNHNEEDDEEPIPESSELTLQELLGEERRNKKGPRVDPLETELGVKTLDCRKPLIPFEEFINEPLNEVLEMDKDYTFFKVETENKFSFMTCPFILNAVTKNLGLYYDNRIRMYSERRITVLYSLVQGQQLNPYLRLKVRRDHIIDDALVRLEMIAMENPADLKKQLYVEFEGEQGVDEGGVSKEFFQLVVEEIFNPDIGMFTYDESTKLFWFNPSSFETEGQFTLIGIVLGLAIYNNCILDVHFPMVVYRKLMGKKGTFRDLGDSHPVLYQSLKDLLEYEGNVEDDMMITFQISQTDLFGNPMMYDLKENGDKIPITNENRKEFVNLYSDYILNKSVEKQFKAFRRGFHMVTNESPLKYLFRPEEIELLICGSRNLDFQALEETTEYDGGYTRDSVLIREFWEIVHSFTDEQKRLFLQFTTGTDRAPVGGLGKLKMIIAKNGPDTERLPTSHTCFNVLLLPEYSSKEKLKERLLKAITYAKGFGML

T2 sequence (heavy, as listed by the source): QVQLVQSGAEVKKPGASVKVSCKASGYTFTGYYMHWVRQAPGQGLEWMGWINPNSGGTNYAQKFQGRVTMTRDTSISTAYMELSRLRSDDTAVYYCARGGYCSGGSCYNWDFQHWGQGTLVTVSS
T3 sequence (P07199 whole entry): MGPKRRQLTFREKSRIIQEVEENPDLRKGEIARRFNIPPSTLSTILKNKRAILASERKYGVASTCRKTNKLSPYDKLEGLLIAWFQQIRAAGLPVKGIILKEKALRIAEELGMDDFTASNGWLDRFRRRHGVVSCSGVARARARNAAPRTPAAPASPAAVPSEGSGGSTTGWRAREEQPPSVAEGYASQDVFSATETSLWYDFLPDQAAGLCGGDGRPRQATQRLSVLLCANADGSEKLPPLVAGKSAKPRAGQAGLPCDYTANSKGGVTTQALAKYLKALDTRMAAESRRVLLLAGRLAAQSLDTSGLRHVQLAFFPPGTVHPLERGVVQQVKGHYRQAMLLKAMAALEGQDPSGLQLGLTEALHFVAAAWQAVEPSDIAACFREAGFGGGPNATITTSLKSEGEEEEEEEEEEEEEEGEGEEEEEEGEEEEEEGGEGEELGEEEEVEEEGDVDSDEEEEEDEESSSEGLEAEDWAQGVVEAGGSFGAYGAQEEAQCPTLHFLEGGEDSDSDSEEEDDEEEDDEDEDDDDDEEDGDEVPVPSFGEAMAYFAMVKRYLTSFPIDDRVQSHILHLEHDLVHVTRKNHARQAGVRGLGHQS
Sequence of Jo-1 antigen (P12081 whole entry): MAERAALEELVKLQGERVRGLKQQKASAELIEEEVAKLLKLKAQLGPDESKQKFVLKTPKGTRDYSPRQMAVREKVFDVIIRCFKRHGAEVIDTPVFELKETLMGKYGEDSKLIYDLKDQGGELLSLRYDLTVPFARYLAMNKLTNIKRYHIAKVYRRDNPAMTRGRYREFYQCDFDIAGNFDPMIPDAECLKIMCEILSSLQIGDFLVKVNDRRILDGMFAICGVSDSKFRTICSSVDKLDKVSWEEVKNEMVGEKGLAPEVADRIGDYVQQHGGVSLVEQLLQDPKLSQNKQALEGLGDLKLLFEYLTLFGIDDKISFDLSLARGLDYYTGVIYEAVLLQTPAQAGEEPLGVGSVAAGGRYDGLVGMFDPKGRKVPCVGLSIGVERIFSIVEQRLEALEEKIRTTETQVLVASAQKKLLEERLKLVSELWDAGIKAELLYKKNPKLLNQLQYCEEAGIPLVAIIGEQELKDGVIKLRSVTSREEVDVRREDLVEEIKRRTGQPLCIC
Sequence of Scl-70 antigen (P11387 whole entry): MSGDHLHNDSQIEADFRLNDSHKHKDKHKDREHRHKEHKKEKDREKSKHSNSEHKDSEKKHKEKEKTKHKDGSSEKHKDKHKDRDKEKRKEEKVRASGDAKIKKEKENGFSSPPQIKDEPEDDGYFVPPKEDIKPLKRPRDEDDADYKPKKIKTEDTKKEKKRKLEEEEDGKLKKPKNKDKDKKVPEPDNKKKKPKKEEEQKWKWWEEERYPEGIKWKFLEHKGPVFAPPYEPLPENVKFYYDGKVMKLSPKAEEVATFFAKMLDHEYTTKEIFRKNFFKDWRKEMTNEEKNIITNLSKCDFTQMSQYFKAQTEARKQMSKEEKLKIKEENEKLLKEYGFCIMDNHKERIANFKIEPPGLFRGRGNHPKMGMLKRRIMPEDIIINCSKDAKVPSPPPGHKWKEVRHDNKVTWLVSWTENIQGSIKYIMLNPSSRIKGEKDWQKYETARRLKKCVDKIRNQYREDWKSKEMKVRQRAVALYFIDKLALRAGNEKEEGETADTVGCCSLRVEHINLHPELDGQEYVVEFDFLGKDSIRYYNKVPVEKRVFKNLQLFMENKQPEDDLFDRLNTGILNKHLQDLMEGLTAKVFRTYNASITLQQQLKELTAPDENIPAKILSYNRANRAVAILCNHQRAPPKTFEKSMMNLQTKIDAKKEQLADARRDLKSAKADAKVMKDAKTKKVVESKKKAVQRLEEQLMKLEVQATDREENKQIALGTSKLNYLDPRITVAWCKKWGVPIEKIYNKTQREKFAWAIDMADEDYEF
Sequence of eOD-GT8 (24-mer) (synthetic construct (engineered HIV-1 …)) (heavy, as listed by the source): as the sequence (heavy, as listed by the source) above
Sequence of eOD-GT8 (heptamer) (synthetic construct (engineered HIV-1 …)) (heavy, as listed by the source): as above
Sequence of SSB (La) antigen (P05455 whole entry): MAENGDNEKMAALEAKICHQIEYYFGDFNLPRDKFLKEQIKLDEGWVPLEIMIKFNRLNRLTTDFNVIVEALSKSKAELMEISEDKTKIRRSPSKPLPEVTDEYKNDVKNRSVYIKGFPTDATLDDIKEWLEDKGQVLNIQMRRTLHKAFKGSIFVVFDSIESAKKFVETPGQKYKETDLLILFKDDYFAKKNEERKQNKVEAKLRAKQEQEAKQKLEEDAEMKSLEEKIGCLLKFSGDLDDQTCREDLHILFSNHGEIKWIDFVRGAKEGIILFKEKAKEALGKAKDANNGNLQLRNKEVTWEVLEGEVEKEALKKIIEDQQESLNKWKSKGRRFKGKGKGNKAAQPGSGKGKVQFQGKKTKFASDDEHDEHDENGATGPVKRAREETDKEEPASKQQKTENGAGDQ

Binder | binding result [1] | binding result [4] | other results
B1 | binds |  | 
B2 | binds |  | 
B3 | binds |  | 
B4 |  |  | binding result (eOD-GT8 (24-mer)): binds; binding result (eOD-GT8 (heptamer)): binds; Kd [2]: < 0.1 nM and 0.25 nM; Kd [3]: 2400 nM and 2500 nM; koff [3]: 0.068 s⁻¹; kon [3]: 3000 M⁻¹ s⁻¹
B5 | binds |  | 
B6 |  |  | binding result (Centromere protein B): binds
B7 | binds |  | 
B8 |  |  | binding result (Jo-1 antigen): binds; binding result (Scl-70 antigen): binds; binding result (Centromere protein B): binds; binding result (SSB (La) antigen): binds
B9 |  | binds | 
B10 |  | no binding (tested: 100 μg/ml) | 
B11 |  | no binding (tested: 100 μg/ml) | 
B12 |  | no binding (tested: 100 μg/ml) | 
B13 |  | no binding (tested: 100 μg/ml) | 
B14 |  | no binding (tested: 100 μg/ml) | 
B15 |  | no binding (tested: 100 μg/ml) | 
